This is an account of results in PMC2175090.

This assay concerns the target polymerized MTs purified from the bovine brain (bovine) (UniProt Q6B856). In words: co-sedimentation.

What is called Kd is a measure of binding affinity in units of concentration. A higher Kd goes with weaker binding.

“GST-M1 fusion protein encompassing ACF7's M1 domain (domain or fragment)” gave an equilibrium dissociation constant (Kd) of 6 µM. In other words, the single-digit micromolar range.
